Measured values as given in publication PMC9772228, “Structure of a RecT/Redβ family recombinase in complex with a duplex intermediate of DNA annealing”.
Positions count from the first letter of the chain named.

Assays:
Assay in all cases: EMSA; EMSA: PBS pH 7.4 (or KH2PO4/10 mM MgCl2 pH 6.0), 3.6 or 5 uM protein, 25 uM nt DNA, 37 C 15 min per strand, 0.8% agarose 1x TBE; cryo-EM: 20 mM KH2PO4 (Results: 10 mM), 10 mM MgCl2 pH 6.0, 37 C; native MS: 100 mM ammonium acetate pH 7, 37 C
Settings in all cases: protein: recombinant, tags: N-terminal 6His vector tag (20 aa) retained, chain copies: 10
[1] = biological target: T1, LiRecT Y100E (Listeria innocua CLIP 11262, UniProt Q92FL9 1-271, Y100E)
T1 sequence: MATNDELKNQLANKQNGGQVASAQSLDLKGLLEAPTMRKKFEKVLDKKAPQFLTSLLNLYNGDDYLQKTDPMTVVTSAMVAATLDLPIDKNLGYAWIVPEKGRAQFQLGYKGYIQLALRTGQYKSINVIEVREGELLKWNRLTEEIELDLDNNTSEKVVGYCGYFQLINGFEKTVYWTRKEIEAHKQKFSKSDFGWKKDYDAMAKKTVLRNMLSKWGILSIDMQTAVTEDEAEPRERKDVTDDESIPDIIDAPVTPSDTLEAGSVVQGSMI

[2] = biological target: T2, LiRecT K157A (Listeria innocua CLIP 11262, UniProt Q92FL9 1-271, K157A)
T2 sequence: T1 sequence with E100Y, K157A

[3] = biological target: T3, LiRecT Q107H (Listeria innocua CLIP 11262, UniProt Q92FL9 1-271, Q107H)
T3 sequence: T1 sequence with E100Y, Q107H

[4] = biological target: T4, LiRecT K215A/W216A (Listeria innocua CLIP 11262, UniProt Q92FL9 1-271, K215A;W216A)
T4 sequence: T1 sequence with E100Y, K215A, W216A

[5] = biological target: T5, LiRecT V98A/Y100A (Listeria innocua CLIP 11262, UniProt Q92FL9 1-271, V98A;Y100A)
T5 sequence: T1 sequence with V98A, E100A

[6] = label: 5'-Cy3;5'-Cy5, 49 bp, 1 nt 5' overhang at each end

GCGGATGGCTTAGAGCAGAATCGCCCTGCATAGCTCGATTTTTGCGGATG (ssDNA) [Cy3-50mer]
binding result ([1]; label: 5'-Cy3, single strand): binds | binding result ([2]; label: 5'-Cy3, single strand): binds | binding result ([3]; label: 5'-Cy3, single strand): binds | binding result ([4]; label: 5'-Cy3, single strand): no binding | binding result ([5]; label: 5'-Cy3, single strand): binds

CCATCCGCAAAAATCGAGCTATGCAGGGCGATTCTGCTCTAAGCCATCCG (ssDNA) [Cy5-50mer]
binding result ([1]; label: 5'-Cy5, single strand): binds | binding result ([2]; label: 5'-Cy5, single strand): binds | binding result ([3]; label: 5'-Cy5, single strand): binds | binding result ([4]; label: 5'-Cy5, single strand): no binding | binding result ([5]; label: 5'-Cy5, single strand): binds

B1: 50-mer duplex intermediate (sequential addition) (dsDNA)
DNA 1: GCGGATGGCTTAGAGCAGAATCGCCCTGCATAGCTCGATTTTTGCGGATG
DNA 2: CCATCCGCAAAAATCGAGCTATGCAGGGCGATTCTGCTCTAAGCCATCCG
binding result [1, 6]: binds | binding result [2, 6]: binds | binding result [3, 6]: binds | binding result [4, 6]: no binding | binding result [5, 6]: binds
